Measurements as given in the supplement of paper PMC9170038.

Test system: MS2 coat protein
Assay: apparent KD of MS2 coat protein; designed switch direction (-1 OFF switch, 1 ON switch): -1; higher = weaker reporter binding
How it was run: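 SNAP-549-labelled MS2 coat protein was titrated, doubling from 0.7 or 1.5 nM to 3 µM, over designed RNA switches transcribed on Illumina chips by stalled E. coli RNA polymerase. Runs were done without input, with 200 uM small-molecule ligand, or with an oligonucleotide input. Apparent KD is the per-design median over clusters of curve-fitted normalised fluorescence.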

[1] = Eterna round: R95, input ligand: FMN 200 uM
[2] = Eterna round: R95, input ligand: microRNA oligo, concentration not stated
[3] = Eterna round: R95, input ligand: none
[4] = input ligand: microRNA oligo, concentration not stated

With “GUUCUGACAGGAUAUACAUGAGGAUCACCCAUGUGCCCUUAGAGAUGCAAAGCAUCUCGUAGAAGGGUCUGAAC [Omei Ex3 Model Bachelor's Dilema v28] (Eterna round: R97, puzzle: Exclusion 3)” the “apparent KD of MS2 coat protein” value (input ligand: FMN 200 uM) was 38.5 nM and the “apparent KD of MS2 coat protein” value (input ligand: none) was 31.6 nM.

With “UAUUAGCAAGCCAGAUCCCACAUGAGGAUCACCCAUGUGCUCGUCUUAUAAGGUACUGUGACGAAAGUCACGGUACC [Sensor 3, v1 - 93] (puzzle: Sensor v3, turn-off variant 1)” the “apparent KD of MS2 coat protein” value [1] was 137 nM, the “apparent KD of MS2 coat protein” value [2] was 1120 nM and the “apparent KD of MS2 coat protein” value [3] was 184 nM.

“GGUACUCAAAGAGUACCAAUACGAACAUGAGGAUCACCCAUGUAGGAUAUGCUACUCAAAGAGUAGCAGAAGGACAUGAACCCU [Far Half Aptamer v7] (Eterna round: R96, puzzle: Exclusion NG 3)” was tested, and the “apparent KD of MS2 coat protein” value (input ligand: FMN 200 uM) was 571 nM, the “apparent KD of MS2 coat protein” value [4] was 38.3 nM and the “apparent KD of MS2 coat protein” value (input ligand: none) was 61.8 nM.

“UGUACGAUGCGUGCUGACAUGCGUCGUGCAGCAGGUGAUACAUGAGGAUCACCCAUGUCCUCAUUUGCUCGUCUUGU [SL-sv3-2.11 JL mod] (puzzle: Sensor v3, turn-off variant 2)” was tested, and the “apparent KD of MS2 coat protein” value [1] was 82.5 nM, the “apparent KD of MS2 coat protein” value [2] was 267 nM and the “apparent KD of MS2 coat protein” value [3] was 85.6 nM.

For “CCUAAGAAAGGAUAUACACCGGUGGGCCGCUGAAUUCAGCAACAUGAGGAUCACCCAUGUAGAAGGUUUAUGGG [Veteso] (Eterna round: R96, puzzle: Exclusion 2)”, the “apparent KD of MS2 coat protein” value (input ligand: FMN 200 uM) was 346 nM, the “apparent KD of MS2 coat protein” value [4] was 147 nM and the “apparent KD of MS2 coat protein” value (input ligand: none) was 262 nM.

“GCUGGACGAGGAUAUAUAUGACGUGCUUCGGCACGAAGAUCACAUGAGGAUCACCCAUGUAGAAGGUGUCCAGC [E2/8-B2] (Eterna round: R97, puzzle: Exclusion 2)” was tested, and the “apparent KD of MS2 coat protein” value (input ligand: FMN 200 uM) was 278 nM and the “apparent KD of MS2 coat protein” value (input ligand: none) was 54.1 nM.

For “AUAUAUAGUGUGAGGAUAUGCUGGUCCUUGGAUCAGCAGAAGGCACAUGAGGAUCACCCAUGUAGUUUAUUUUG [Mat - Exclusion 4 - JL Mod - D6] (puzzle: Brourd's mod of Exclusion 4)”, the “apparent KD of MS2 coat protein” value [2] was 17.3 nM.

In the case of “CCGGAACAUGAGGAUCACCCAUGUCAGGAUAUGAAUAAAUCGUCGAAAGACGAUAAUCUCAGAAGGGACACCGG [Eli 4.28] (Eterna round: R97, puzzle: Exclusion 1)”, the “apparent KD of MS2 coat protein” value (input ligand: FMN 200 uM) is reported as 22.7 nM and the “apparent KD of MS2 coat protein” value (input ligand: none) is reported as 19.6 nM.

In the case of “AAUAACAGAGGAUAUACUAUUUUAUGUAUUUAUUAUUUUGAACAUGAGGAUCACCCAUGUAGAAGGCUGAUUAA [JMF 47] (puzzle: Exclusion 2)”, the “apparent KD of MS2 coat protein” value [2] is reported as 28.7 nM.

In the case of “UGUGCAACAGGAUAUAUGUGGCGUCCGUGAGGACGAAGGUUACAUGAGGAUCACCCAUGUAGAAGGGUUGUACU [Mat - Exclusion 2 - JL Mod - D24] (Eterna round: R97, puzzle: Exclusion 2)”, the “apparent KD of MS2 coat protein” value (input ligand: FMN 200 uM) is reported as 218 nM and the “apparent KD of MS2 coat protein” value (input ligand: none) is reported as 68.5 nM.

With “GCAGUGCGAGGAUAUACAUGAGGAUCACCCAUGUGAGAAGAAUAAGUGAGGAAGAAAAGUAGAAGGCGCGUUGG [Mat - Exclusion 3 - Mod of Salish D68] (puzzle: Exclusion 3)” the “apparent KD of MS2 coat protein” value [1] was 71.8 nM, the “apparent KD of MS2 coat protein” value [2] was 47.4 nM and the “apparent KD of MS2 coat protein” value [3] was 54.6 nM.

In the case of “AGUUAAGCAGGAUAUAUCCGGGAUAACAUGAGGAUCACCCAUGUGACCGCUUGAUAUCCUAUAGAAGGGCUUAAGA [Mod of ViennaUCT 25 - Jieux - Exclusion 5] (Eterna round: R97, puzzle: Exclusion 5)”, the “apparent KD of MS2 coat protein” value (input ligand: FMN 200 uM) is reported as 68.2 nM and the “apparent KD of MS2 coat protein” value (input ligand: none) is reported as 27.4 nM.

With “GGAUCCUGGGUCAGGAUAUGCUGACAGCUUUGUCAGCAGAAGGGACAUGAGGAUCACCCAUGUGCUCGGUUUUG [Magic-20] (puzzle: Brourd's mod of Exclusion 4)” the “apparent KD of MS2 coat protein” value [2] was 9.68 nM.

For “UUUAAUUUUUUUUUUUUACAAGCUUUUUGCUCGUCUUAUACAUGAGGAUCACCCAUGUGGGUGGAAAAUAAAUUAUC [JMF 92] (Eterna round: R96, puzzle: Sensor v3, turn-off variant 2)”, the “apparent KD of MS2 coat protein” value (input ligand: FMN 200 uM) was 583 nM, the “apparent KD of MS2 coat protein” value [4] was 232 nM and the “apparent KD of MS2 coat protein” value (input ligand: none) was 472 nM.
